Drawing on patent US20210139588A1, this text covers MFI and Unit (%) (cells in the positive gate) for one substance.

Assay [1] has as its target wild type (glycosylated) PD-1 expressed on 293T cells (PD-1-Flag) (human) (UniProt Q15116). The assay can be described thus: flow cytometry on 293T cells expressing the PD-1 form, labeled secondary antibody; control antibody. (In general: Flow cytometry measures light scatter and fluorescence of single cells or particles in a stream.)
Assay [2] addresses N49Q mutant PD-1 expressed on 293T cells (PD-1-Flag) (human) (UniProt Q15116). The assay is described as above.
For assay [3], the target named is N58Q mutant PD-1 expressed on 293T cells (PD-1-Flag) (human) (UniProt Q15116). Described as above.
Sequence of N58Q mutant PD-1 expressed on 293T cells (PD-1-Flag) (human) (Q15116 25-288 N58Q): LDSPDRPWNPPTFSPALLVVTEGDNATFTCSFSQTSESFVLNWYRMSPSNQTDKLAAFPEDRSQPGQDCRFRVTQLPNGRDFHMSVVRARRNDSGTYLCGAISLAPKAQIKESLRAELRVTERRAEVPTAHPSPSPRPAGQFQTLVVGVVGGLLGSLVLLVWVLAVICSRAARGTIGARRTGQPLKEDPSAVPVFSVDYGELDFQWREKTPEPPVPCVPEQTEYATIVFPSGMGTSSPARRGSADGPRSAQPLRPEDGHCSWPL
Assay [4] concerns the target 4NQ mutant (unglycosylated) PD-1 expressed on 293T cells (PD-1-Flag) (human) (UniProt Q15116). Described as above.
The target in assay [5] is N74Q mutant PD-1 expressed on 293T cells (PD-1-Flag) (human) (UniProt Q15116). The assay is described as above.
Sequence of N74Q mutant PD-1 expressed on 293T cells (PD-1-Flag) (human) (Q15116 25-288 N74Q): as the sequence (Q15116 25-288 N58Q) above, with Q34N, N50Q counted along it
For assay [6], the target named is N116Q mutant PD-1 expressed on 293T cells (PD-1-Flag) (human) (UniProt Q15116). Described as above.
Sequence of N116Q mutant PD-1 expressed on 293T cells (PD-1-Flag) (human) (Q15116 25-288 N116Q): as the sequence (Q15116 25-288 N58Q) above, with Q34N, N92Q counted along it
The target of assay [7] is wild type (glycosylated) PD-1 expressed on 293T cells (PD-1-Flag) (human) (UniProt Q15116). Briefly: flow cytometry on 293T cells expressing the PD-1 variant, anti-mouse IgG-PE secondary, DAPI-negative population gated; percent of cells right of the dashed gate; 293T blank cells give 1.69.
Sequence of wild type (glycosylated) PD-1 expressed on 293T cells (PD-1-Flag) (human) (Q15116 25-288): as the sequence (Q15116 25-288 N58Q) above, with Q34N counted along it
Assay [8] deals with N49Q mutant PD-1 expressed on 293T cells (PD-1-Flag) (human) (UniProt Q15116). The assay is described as above.
Sequence of N49Q mutant PD-1 expressed on 293T cells (PD-1-Flag) (human) (Q15116 25-288 N49Q): as the sequence (Q15116 25-288 N58Q) above, with N25Q, Q34N counted along it
Assay [9] has as its target N58Q mutant PD-1 expressed on 293T cells (PD-1-Flag) (human) (UniProt Q15116). The assay is described as above.
Assay [10] has as its target 4NQ mutant (unglycosylated) PD-1 expressed on 293T cells (PD-1-Flag) (human) (UniProt Q15116). The assay is described as above.
Assay [11] has as its target N74Q mutant PD-1 expressed on 293T cells (PD-1-Flag) (human) (UniProt Q15116). The assay is described as above.
In assay [12] the target is N116Q mutant PD-1 expressed on 293T cells (PD-1-Flag) (human) (UniProt Q15116). The assay is described as above.

Sequence of 4NQ mutant (unglycosylated) PD-1 expressed on 293T cells (PD-1-Flag) (human) (Q15116 other isoform, or with tags, fused parts or gaps mutant): as the sequence (Q15116 25-288 N58Q) above, with N25Q, N50Q, N92Q counted along it

As to control mouse IgG (antibody), the MFI in assay [1] amounted to 52 MFI; in assay [2] it was 31 MFI; in assay [3], 106 MFI; in assay [4], 26 MFI; in assay [5], 26 MFI; in assay [6], 28 MFI. Besides, the Unit (%) (cells in the positive gate) in assay [7] is 10.7%; in assay [8] it was 2.73%; in assay [9], 17.6%; in [10] it was 1.53%; in [11] it was 3.25%; in assay [12], 2.37%.
